Results taken from PMC7813835, “Structure of SRSF1 RRM1 bound to RNA reveals an unexpected bimodal mode of interaction and explains its involvement in SMN1 exon7 splicing”.

Legend:
SRSF1 RRM1 YS = SRSF1 RRM1 YS (human, UniProt Q07955 1-97, Y37S;Y72S); experiment: ITC; NMR buffer: 50 mM L-Glu, 50 mM L-Arg, 0.05% beta-mercaptoethanol, 20 mM Na2HPO4 pH 7 (RRM1+2: plus 150 mM KCl, 1.5 mM MgCl2, 0.2 mM EDTA); NMR and ITC at 40 C; settings: protein: recombinant; tags: N-terminal GB1-6xHis
[1] = target: T1, SRSF1 RRM1 (YS or WT not stated) (human, UniProt Q07955 1-97); experiment: NMR; NMR buffer: 50 mM L-Glu, 50 mM L-Arg, 0.05% beta-mercaptoethanol, 20 mM Na2HPO4 pH 7 (RRM1+2: plus 150 mM KCl, 1.5 mM MgCl2, 0.2 mM EDTA); NMR and ITC at 40 C; settings: protein: recombinant; tags: N-terminal GB1-6xHis
T1 sequence (Q07955 1-97): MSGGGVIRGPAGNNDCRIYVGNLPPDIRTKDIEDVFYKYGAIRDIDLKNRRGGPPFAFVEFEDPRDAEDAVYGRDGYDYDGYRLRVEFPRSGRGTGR

[2] = target: T2, SRSF1 RRM1+2 YS (RRM12 YS) (human, UniProt Q07955 1-196, Y37S;Y72S); experiment: NMR; saturation at 1:1; NMR buffer: 50 mM L-Glu, 50 mM L-Arg, 0.05% beta-mercaptoethanol, 20 mM Na2HPO4 pH 7 (RRM1+2: plus 150 mM KCl, 1.5 mM MgCl2, 0.2 mM EDTA); NMR and ITC at 40 C; settings: protein: recombinant; tags: GB1, His
T2 sequence (Q07955 1-196 Y37S/Y72S): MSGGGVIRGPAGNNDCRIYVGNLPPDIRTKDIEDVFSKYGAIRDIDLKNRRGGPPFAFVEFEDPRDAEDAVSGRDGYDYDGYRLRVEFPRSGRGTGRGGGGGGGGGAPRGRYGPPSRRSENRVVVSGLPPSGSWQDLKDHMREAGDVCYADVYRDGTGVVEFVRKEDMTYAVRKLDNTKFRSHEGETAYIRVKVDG

[3] = target: T2, SRSF1 RRM1+2 YS (RRM12 YS); experiment: ITC; NMR buffer: 50 mM L-Glu, 50 mM L-Arg, 0.05% beta-mercaptoethanol, 20 mM Na2HPO4 pH 7 (RRM1+2: plus 150 mM KCl, 1.5 mM MgCl2, 0.2 mM EDTA); NMR and ITC at 40 C; settings: protein: recombinant; tags: GB1, His
SRSF1 RRM1 WT = SRSF1 RRM1 WT (human, UniProt Q07955 1-97); experiment: NMR; saturation at 1:1; NMR buffer: 50 mM L-Glu, 50 mM L-Arg, 0.05% beta-mercaptoethanol, 20 mM Na2HPO4 pH 7 (RRM1+2: plus 150 mM KCl, 1.5 mM MgCl2, 0.2 mM EDTA); NMR and ITC at 40 C; settings: protein: recombinant; tags: N-terminal GB1-6xHis
SRSF1 RRM1 WT, sequence (Q07955 1-97): as the sequence (Q07955 1-97) above

[4] = target: T1, SRSF1 RRM1 (YS or WT not stated); experiment: NMR solution structure; 1:1 complex; NMR buffer: 50 mM L-Glu, 50 mM L-Arg, 0.05% beta-mercaptoethanol, 20 mM Na2HPO4 pH 7 (RRM1+2: plus 150 mM KCl, 1.5 mM MgCl2, 0.2 mM EDTA); NMR and ITC at 40 C; settings: protein: recombinant; tags: N-terminal GB1-6xHis
[5] = target: T2, SRSF1 RRM1+2 YS (RRM12 YS); experiment: ITC; 143 in the reviewer reply; NMR buffer: 50 mM L-Glu, 50 mM L-Arg, 0.05% beta-mercaptoethanol, 20 mM Na2HPO4 pH 7 (RRM1+2: plus 150 mM KCl, 1.5 mM MgCl2, 0.2 mM EDTA); NMR and ITC at 40 C; settings: protein: recombinant; tags: GB1, His

SRSF1 RRM1 YS, sequence (Q07955 1-97 Y37S/Y72S): as the sequence (Q07955 1-97) above, with Y37S, Y72S counted along it

CCCCCC (ssRNA) [CCCCCC RNA (polyC)] gave a Kd (SRSF1 RRM1 YS) of 11 µM.

GGGGGG (ssRNA) [polyG (NMR, length not stated)]: no binding [1].

CCCCCC (ssRNA) [polyC (NMR, length not stated)]: binds [1].

UUUAGA (ssRNA) [SMN2 exon7 ESE1 counterpart]: no binding [1].

UCAUUGGAUUUUUCAU (ssRNA): binds [2].

UUUUUU (ssRNA) [polyU (NMR, length not stated)]: no binding [1].

UUUUUU (ssRNA) [UUUUUU RNA (polyU)]: no binding (SRSF1 RRM1 YS).

AAAAAA (ssRNA) [polyA (NMR, length not stated)]: no binding [1].

For UUUUUGGAU (ssRNA), the Kd [3] was 0.164 µM.

UGGAUUUUUCAU (ssRNA) was tested, and the Kd [3] was 0.055 µM.

In the case of AACAAA (ssRNA) [AACAAA RNA], the binding result (SRSF1 RRM1 WT) is reported as “binds”, the Kd (SRSF1 RRM1 YS) is reported as 21 µM and the binding result [4] is reported as “binds”.

With AACGAA (ssRNA) [AACGAA RNA] the binding result [1] was “binds” and the Kd (SRSF1 RRM1 YS) was 25 µM.

UGGAUUUUUUUU (ssRNA) gave a Kd [5] of 0.145 µM.

UUCAGA (ssRNA) [SMN1 exon7 ESE1]: binds [1].
